US20160185875A1 (DCB USA, published 2016)

Molecular target: T1, EGFR on EGFR-positive SW480 cells (human, UniProt P00533 25-1210)
T1 construct: whole, on cells; also called epidermal growth factor receptor
Test: cell-based ELISA on EGFR-positive SW480 cells, around 2 hours after MMP2 treatment
Description: Briefly, EGFR-positive SW480 cells or HER2-positive SKBr3 cells were seed on a 96-well plate by 10⁵ cells/well using 200 μl of growth medium (DMEM+10% CCS+1% P/S), and incubated at 37° C. overnight.

antigen binding capability (% of parent antibody): ~90%
B1: MMP2-treated IgG1 hinge/MMP2/panitumumab (antibody, V domains shown, not shown: small tags and cut ends)
VH: QVQLVQSGAEVKKPGASVKVSCKASGYTFTSYWMHWVRQAPGQGLEWMGNIYPGSGGTNYAEKFKNRVTMTRDTSISTAYMELSRLRSDDTAVYYCARSGGPYFFDYWGQGTLVTVSS
VL: DIVMTQSPLSLPVTPGEPASISCRSSQNIVHNNGITYLEWYLQKPGQSPQLLIYKVSDRFSGVPDRFSGSGSGTDFTLKISRVEAEDVGVYYCFQGSHIPPTFGQGTKVEIKR
notes: m14 around 2 hours after MMP2 treatment
